Measured values as given in US8258099B2, “Pin1-modulating compounds and methods of use thereof” (Max-Planck-Gesellschaft zur Foerderung der Wissenschaften …, priority 2004, dated 2012).
Square brackets hold non-standard residues; d marks the D form. Peptide text beside a SMILES is read from it. * marks the point of attachment. Biotin = O=C1N[C@H]2[C@H](CS[C@H]2CCCCC(=O)*)N1; pT = C[C@@H](OP(=O)(O)O)[C@H](N)C(=O)O; 2Nal = N[C@@H](Cc1ccc2ccccc2c1)C(=O)O; Bta = N[C@@H](Cc1csc2ccccc12)C(=O)O; Pip = O=C(O)[C@@H]1CCCCN1

What was measured:
[1] = target: T1, full length hPin1 (Homo sapiens, UniProt Q13526); assay: Isothermal titration calorimetry (ITC), full length hPin1; type: binding
T1 construct: The protease free assay ensures reliable measurement of IC50 values for the full-length hPin1
Description: FIGS. 3A-B depicts a thermodynamic characterization of the binding of peptide 17 towards full length hPin1 by isothermal titration calorimetry (ITC). FIG. 3A depicts peaks that represent the heat evolved after injection of peptide 17 into the sample cell containing hPin1. After the 11th injection only the heat of dilution is observed. The experiment was performed at 10 C. FIG. 3B depicts integrals of the corresponding peaks of panel A are plotted against the molar ratio of peptide 17 and hPin1. The solid line represents a nonlinear least squares fit analysis of the binding heat assuming a single binding site model with the following parameters: ΔHbind=−4561±36 cal/mol, TΔSbind=5433±529 cal/mol, n=0.96 (binding stoichiometry) and KAss=5.18×10^7±7×10^6 M^−1 (association constant).
Calorimetric experiments were performed using a VP-ITC titration calorimeter (MicroCal, Inc, Northampton, Mass.) at 10° C. All solutions were degassed under vacuum prior to use. Solutions of hPin1 and hPin1 PPIase domain were dialyzed against 10 mM Hepes (pH 7.8). The protein concentration in the sample cell was adjusted to 6.5 μM using the same batch of buffer. Protein concentrations were determined as described above. The volume of the protein solution in the sample cell was 1.4 ml. The injection syringe was filled with 300 μl solution of peptide 17 (see table III) (250 μM in the same batch of buffer as used for dialyses). Each titration experiment consisted of a single 1 μl injection followed by 16 identical injections of 5 μl solution of peptide 17.
In principle, minimally four forms of a competing substrate in the presence of hPin1 have to be considered, the free cis and trans isomers together with two Michaelis complexes. This four-site exchange model of PPIase catalysis involves understanding predisposing factors of the stability of hPin1/substrate complexes, expected to be weaker, than the stability for those formed by phosphopeptides lacking substrate properties. The consequent increase in inhibitory potency could be realized by a transition state destabilizing substitution in peptide 15. Previous studies have shown that following C^α-stereocenter inversion of a substrate at the P1 position the parvulins fully retain substrate-like active site affinity for the derivatives while catalytic rate acceleration is abolished (Schiene et al., 1998). […] To optimize solute diffusion after mechanical injection of the Pin1 binding peptides into the viscous Xenopus laevis egg cytosol, the molecular weight of 1376.5 for peptide 16 was reduced to 823.8 for peptide 17. Following chain truncation peptide 17 maintained high affinity for Pin1 (Table III). To ensure domain selectivity, the binding of peptide 17 towards hPin1 was characterized using the isothermal titration calorimetry (ITC). […] The dissociation constant determined with ITC is in the same range as obtained in the protease-free PPIase assay (Table III).

[2] = target: T2, GST-hPin1, GST-hPin1 PPIase and GST-hPin1 WW domain (Homo sapiens, UniProt Q13526); assay: Far western blot related analysis, hPin1 and its single domains; type: binding; settings: 1 μM peptide 15, 50 μM nonphosphorylated derivative
T2 construct: made in house
Description: FIGS. 2A-B depict western blot experiments analyzing the binding of peptide 15 to Pin1. FIG. 2A depicts the binding preferences of the PPIase and WW domain of hPin1 regarding peptide 15. In far western blot related experiments, increasing amounts (from left to right: 1, 5, 10, 52.5, 105 pmol) of GST, GST-hPin1 or its single GST-hPin1 PPIase and GST-hPin1 WW domain were spotted onto nitrocellulose membranes followed by a blocking procedure. The membranes were then incubated with a 1 μM solution of peptide 15 or 50 μM solution of its nonphosphorylated derivative (control). Signals were detected after incubation of the nitrocellulose membranes with horseradish peroxidase-conjugated streptavidin followed by a chemiluminescent reaction using the SuperSignal® substrate. FIG. 2B depicts an analysis of the binding of peptide 15 towards different GST-hPin1 variants. […] Residual PPIase activities of GST-hPin1 and its variants were determined according to Zhou et al., 2000 and/or Yaffe et al., 1997. The PPIase activity of the GST-hPin1 variant Ser16Glu was measured in the protease free PPIase assay.
GST-hPin1 variants, GST-hPin1 PPIase and GST-hPin1 WW domain were prepared as described previously (Ranganathan et al., 1997, Zhou et al., 2000). […] Specific bound peptide 15 was detected by a chemiluminescent reaction using the SuperSignal® substrate (Pierce).

[3] = target: T3, hPin1 (Homo sapiens, UniProt Q13526); assay: Protease free PPIase assay, hPin1; type: biochemical; settings: 25 μM, phosphoester group on threonine lacking
T3 construct: The protease free assay ensures reliable measurement of IC50 values for the full-length hPin1
Description: Protein concentrations were determined using the extinction coefficient ε280=21030 M^−1 cm^−1 for hPin1, ε280=6979 M^−1 cm^−1 for the hPin1 PPIase domain, ε280=21030 M^−1 cm^−1 for XlPin1, ε280=8250 M^−1 cm^−1 for hPar14 and ε280=8250 M^−1 cm^−1 for hCyp18. Extinction coefficients were calculated using the program ProtParam Tool at ExPASy (SIB, Switzerland). All measurements were done at 10° C. in 35 mM Hepes buffer (pH 7.8).
The determination of the kinetic constants of the cis/trans isomerization within the protease-free system was performed using fluorescence based measurements (Garcia-Echeverria et al., 1993, Zhang et al., 2002) on a Hitachi F-3010 fluorescence spectrophotometer with H-Abz-Ala-Glu-Pro-Phe-NH-Np (SEQ ID NO: 2) as substrate. The substrate stock solution was 12 mM in anhydrous trifluoroethanol/0.55 M LiCl. Measurements were initiated by addition of the substrate (final concentration 10 μM) to a pre-incubated (15 min) mixture of 8.8 nM hPin1 or 7.1 nM XlPin1 and respective inhibitory peptide of desired concentrations. The excitation wavelength was 320 nm (spectral bandwidth 3 nm) and emission was detected at 420 nm (spectral bandwidth 10 nm).
Data analysis was performed by single-exponential nonlinear regression using the SigmaPlot Scientific Graphing System Version 5.00 (Jandel Corp.). The apparent first order rate constant kobs was computed by nonlinear regression of the progress curve obtained for the respective measurement. The rate constant k0 was determined in the absence of Pin1. The first order rate constants kenz was calculated from the equation kenz=kobs−k0. IC50 and Ki values were determined by fitting the first order rate constants kenz against the concentration of the inhibitory peptide by nonlinear regression according to Schutkowski et al., 1995 or a model for tight binding inhibitors (Morrison, 1969).
The protease free assay ensures reliable measurement of IC50 values for the full-length hPin1.

T1 sequence (Q13526 whole entry): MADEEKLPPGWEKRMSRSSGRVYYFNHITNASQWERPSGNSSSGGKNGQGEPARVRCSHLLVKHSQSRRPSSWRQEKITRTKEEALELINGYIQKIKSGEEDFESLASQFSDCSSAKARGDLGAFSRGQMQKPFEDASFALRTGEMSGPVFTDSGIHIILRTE
T2 sequence (Q13526 whole entry, the tested form may be a part): as the sequence (Q13526 whole entry) above
T3 sequence (Q13526 whole entry): as above

binding to GST-hPin1 and its PPIase and WW domains [2] | hPin1 inhibition [3] | Compound | Kd [1]
– | – | CC(=O)N[C@@H](Cc1ccccc1)C(=O)N[C@H](C(=O)N1CCCC[C@H]1C(=O)N[C@@H](Cc1ccc2ccccc2c1)C(=O)N[C@@H](CCC(N)=O)C(N)=O)[C@@H](C)OP(=O)(O)O [Ac-Phe-L-Thr(PO3H2)-Pip-Nal-Gln-NH2, reference compound] (Ac-F[pT][Pip][2Nal]Q-NH2) | 0.6 µM
not able to form a complex | does not show any hPin1 inhibition | nonphosphorylated derivative of peptide 15: peptide 15 lacking the phosphoester group on threonine, used as control (Ac-K(Biotin)AA[Bta]T[Pip][2Nal]Q-NH2; SMILES CC(=O)N[C@@H](CCCCNC(=O)CCCC[C@@H]1SC[C@@H]2NC(=O)N[C@@H]21)C(=O)N[C@@H](C)C(=O)N[C@@H](C)C(=O)N[C@@H](Cc1csc2ccccc12)C(=O)N[C@H](C(=O)N1CCCC[C@H]1C(=O)N[C@@H](Cc1ccc2ccccc2c1)C(=O)N[C@@H](CCC(N)=O)C(N)=O)[C@@H](C)O) [reference compound] | –
